Target: T1, His6-tagged human PSF (human, UniProt P23246 1-707)
T1 sequence (looked up): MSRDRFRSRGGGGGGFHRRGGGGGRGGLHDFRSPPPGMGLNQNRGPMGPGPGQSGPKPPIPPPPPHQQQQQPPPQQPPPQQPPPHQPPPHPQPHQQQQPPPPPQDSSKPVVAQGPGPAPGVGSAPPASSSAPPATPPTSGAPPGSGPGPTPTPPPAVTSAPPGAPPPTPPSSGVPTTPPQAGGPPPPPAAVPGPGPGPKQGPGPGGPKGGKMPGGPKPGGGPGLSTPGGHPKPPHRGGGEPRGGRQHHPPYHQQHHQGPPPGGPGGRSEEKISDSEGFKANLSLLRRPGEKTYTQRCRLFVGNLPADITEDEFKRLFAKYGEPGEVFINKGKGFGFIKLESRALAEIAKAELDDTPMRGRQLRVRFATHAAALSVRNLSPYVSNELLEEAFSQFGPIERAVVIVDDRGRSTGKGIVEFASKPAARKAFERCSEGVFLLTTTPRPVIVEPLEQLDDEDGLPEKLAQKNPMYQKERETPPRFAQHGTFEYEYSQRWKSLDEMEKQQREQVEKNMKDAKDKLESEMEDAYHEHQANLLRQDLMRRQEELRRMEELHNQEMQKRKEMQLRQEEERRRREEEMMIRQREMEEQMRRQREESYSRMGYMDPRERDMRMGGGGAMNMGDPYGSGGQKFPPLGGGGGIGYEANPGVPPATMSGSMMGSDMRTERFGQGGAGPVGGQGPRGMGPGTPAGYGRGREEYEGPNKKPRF
Assay: pull-down

B1: Human RAD51 without His6 tag (natural protein, UniProt Q06609 1-339, looked up)
chain: MAMQMQLEANADTSVEEESFGPQPISRLEQCGINANDVKKLEEAGFHTVEAVAYAPKKELINIKGISEAKADKILAEAAKLVPMGFTTATEFHQRRSEIIQITTGSKELDKLLQGGIETGSITEMFGEFRTGKTQICHTLAVTCQLPIDRGGGEGKAMYIDTEGTFRPERLLAVAERYGLSGSDVLDNVAYARAFNTDHQTQLLYQASAMMVESRYALLIVDSATALYRTDYSGRGELSARQMHLARFLRMLLRLADEFGVAVVITNQVVAQVDGAAMFAADPKKPIGGNIIAHASTTRLYLRKGRGETRICKIYDSPCLPEAEAMFAINADGVGDAKD
stoichiometry N: ~1 PSF:RAD51

— paper PMC2715225 (Nucleic Acids Research, 2009)
